The record followed here is patent publication US20180320177A1, “COMPOSITIONS AND METHODS FOR THE TREATMENT OF LIVER FIBROSIS” (UNIVERSITY OF CONNECTICUT, priority 2015, published 2018).

The test system of data set [1] is HMGB2 protein. The experiment in a line: Inhibition of HMGB2 protein by miRNAs in human and mouse cells. Format: cell-based. The method, then: (§1) Western Blotting: Total protein lysates were prepared from livers and cells in lysis buffer containing 50 mM Tris, pH 8.0, 1% Nonidet™ P-40, 150 mM NaCl, 0.5% sodium deoxycholate, 0.1% SDS with protease inhibitors (Thermo Fisher Scientific) and subjected to immunoblotting. Nuclear and cytoplasmic subcellular fractions were prepared using NE-PER nuclear and cytoplasmic extraction reagents (Pierce) according to the manufacturer's instructions. The blot was incubated with a primary antibody, followed by a secondary antibody conjugated to horseradish peroxidase. ECL kit (Pierce) was used to detect the reactivity. The following antibodies were obtained from Cell Signaling Technology: HMGB2, HMGB1, AKT, p-AKT, mTOR, p-mTOR, ERK1/2, pERK1/2, Raptor, Rictor, p53, p21, p-Bad, Smad4, p-Smad2/3, Lamin A/C, a-SMA, MMP2, MMP9, TIMP1, RhoA, Rho-GTP, Cdc42, Rac1/2/3. Anti-HA antibody and anti-beta actin antibody were purchased from Sigma and Santa Cruz Biotechnology, respectively.
(§2) Cell culture, Cell transfection:HEK293T, Hela, Hep3B and MHCC97H cells were cultured and transfected using X-tremeGENE™ HP DNA transfection reagent (Roche) as described previously. CGR8 ES cells were cultured on 0.1% gelatin coated tissue-culture dish in knockout DMEM medium containing 15% ES qualified-Fetal Bovine Serum, 2 mM L-glutamin, 0.1 mM NEAA, 0.1 mM β-mercaptoethanol, 50 μg/ml penicillin-streptomycin and 10 ng/ml Leukemia inhibitory factor (LIF). TIC cells were cultured in DMEM-F12 medium containing Embryomax nucleotides, 2 mM L-glutamin, 0.1 mM NEAA, 20 ng/ml mouse EGF, 50 μg/ml penicillin-streptomycin and […].
We identified conserved binding sites for miR-539, miR-543, miR-181c, and miR-23α in human and mouse HMGB2 3′UTRs (not sho4wn). We tested the inhibition of HMGB2 protein by these miRNAs in both human and mouse cells. […]

The subject of the next data set is TIC cells. The experiment in a line: TIC cell spheroid assay. Format: cell-based. As to conditions: TIC cells infected with miR-127 lentivirus (FIG. 15C). The method, then:
TIC cells were trypsinized into single cells and 1000 cells were suspended in serum free TIC medium with 1% methylcellulose supplemented with B27, 20 ng/ml EGF and 20 ng/ml FGF in each well of 96-well ultralow attachment plate.

A further data set concerns HMGB2 3′UTR. Briefly: HMGB2 3′UTR luciferase reporter assay in HEK293T cells. The settings on record: 0, 75 or 150 ng miR-127 (FIG. 12A-12B). It is filed as cell-based, human. The method, then: Luciferase reporter assay: 48 h after transfection with luciferase reporter plasmid and Renilla plasmid, cells were harvested and analyzed with the Dual-Luciferase reporter assay system (Promega) as described. All assays were done in triplicates, and all values were normalized for transfection efficiency against Renilla luciferase activities.
FIG. 12A is a sequence alignment of miR-127 and the 3′-UTR of HMGB2 in human, mouse and rat. The seed match region is indicated by underline. mut, mutant FIG. 12B is a Luciferase reporter assay. Left, HEK293T cells were transfected with HMGB2 3′UTR luciferase reporter with 0, 75 or 150 ng miR-127; Middle, HEK293T cells were transfected with wild-type or mutant HMGB2 3′UTR with or without 150 ng miR-127. Right, HEK293T cells were transfected with HMGB2 3′UTR with or without miR-127 antagomir. Luciferase activity was normalized to Renilla activity. In FIG. 12C, Western blotting was performed to determine endogenous HMGB2 protein in Hela cells that were transfected with pTarget, pTarget-miR-433, or pTarget-miR-127. β-Actin served as an internal control. In FIG. 12D, Left, western blot was performed to determine HMGB2 and CREB protein level in MHCC97H cells transfected with miR-127 for 24 hrs. Right, qPCR analysis of miR-127 level in MHCC97 cells transfected with miR-127 for 0, 24, 48 hrs. […]

The subject of data set [2] is HMGB2 protein. The experiment in a line: Western blot of HMGB2 protein in HCC cells transfected with miR-127. Format: cell-based, human. As to conditions: HCC cells transfected with miR-127 (FIGS. 12C-F). The procedure: as §1
Cell culture, Cell transfection:HEK293T, Hela, Hep3B and MHCC97H cells were cultured and transfected using X-tremeGENE™ HP DNA transfection reagent (Roche) as described previously. […]

Data set [3] relates to CGR8 ES cells. Briefly: CGR8 ES cell differentiation and EB formation. Format: cell-based, mouse. The settings on record: knockdown of HMGB2 (summary). The method, then: as §2
(§3) ES cells EB formation and TICs spheroid assay: CGR8 ES cells were trypsinized into single cells and cultured in ES medium devoid of LIF in hanging drops (900 cells per EB) for 2 d and transferred to ultralow attachment plate for a further 2 d suspension culture. Then, EBs were plated onto gelatin coated tissue-culture plate for further 7 d spontaneously differentiation.
FIGS. 10A-C show the establishment of CGR8 cell culture and differentiation. […] Undifferentiated feeder-free CGR8 ES cells were maintained on 0.1% gelatin coated 6-cm tissue-culture dish in ES medium containing 10 ng/ml Leukemia inhibitory factor (LIF). For EB formation, CGR8 ES cells were trypsinized into single cells and cultured in ES medium devoid of LIF in hanging drops (900 cells per EB) for 2 d and in suspension culture for a further 2 d. Then, EBs were transferred onto gelatin coated tissue-culture plate for further spontaneously differentiation. ES withdraw LIF 2d, CGR8 ES cells were cultured in ES medium devoid of LIF for 2 d.
FIG. 14A is Left, Western blot of HMGB2 and SOX2 protein in HEK293T cells transfected with 0.5 μg […] expression plasmid and 0, 1 or 2 μg Flag-HMGB2 expression plasmid. Right, Western blot of HMGB2 and OCT4 protein in HEK293T cells transfected with 0.5 μg HA-OCT4 expression plasmid and 0, 1 or 2 μg Flag-HMGB2 expression plasmid. […] CGR8 cells were lysed, co-immunoprecipitated with OCT4 antibody, followed by Western blot with HMGB2 or OCT4 antibodies. FIG. 14 C is a luciferase reporter assay. HepG2 cells were infected with AAV8-GFP or AAV8-HMGB2 24 hrs before being transfected with 6*OS luciferase reporter and OCT4, SOX2 expression plasmids alone or in combination.

Data set [4] deals with CGR8 ES cells. Briefly: qPCR of ES markers and three-germ layer genes in CGR8 ES cells and EBs. As to conditions: miR-127 lentivirus versus GFP; CGR8 ES cells and 4d EBs. It is filed as cell-based, mouse. The procedure: RNA Isolation and Analysis: RNA was isolated using TRIzol® (Thermo Fisher) according to the manufacturer's instructions. For quantitative real time RT-PCR (q-PCR), RNA was reverse transcribed using iScript™ cDNA Synthesis Kit (Bio-Rad). The resultant cDNA was amplified and quantified using SsoAdvance™ Universal SYBR® Green Supermix (Bio-Rad) in CFX384 Touch™ Real-Time PCR Detection System (BioRad). qPCR was performed in triplicate for each sample and repeated at three times. Ct values were used to calculate the relative expression level normalized to the levels of Hprt1 or beta-actin expression.
as §3
(§4) Right, western blot of HMGB2, RhoA, CDC42, Rac1/2/3 in TIC cells which were infected with miR-127 or GFP lentivirus.

In data set [5] the test system is HMGB2 protein. Briefly: Western blot of HMGB2 in TIC cells infected with miR-127 lentivirus. It is filed as cell-based. The settings on record: miR-127 lentivirus versus GFP (FIG. 15B). The method, then: as §1, §4
Another data set relates to MMP and Rho signaling. The experiment in a line: Western blot of MMP and Rho signaling in TIC cells. Format: cell-based. As to conditions: TIC cells, miR-127 lentivirus versus GFP (FIG. 15B). The method, then:
as §1
Cell Lines The LX-2 human stellate cell line was maintained in Dulbecco's Modified Eagle's Medium (DMEM) supplemented with 2% fetal bovine serum (FBS), 100 IU/ml penicillin, and 100 μg/ml streptomycin. Human hepatocellular carcinoma (HCC) MHCC97H cells were maintained in DMEM supplemented with 10% FBS, 100 IU/ml penicillin, and 100 μg/ml streptomycin, 1 mM HEPES, 1 mM sodium pyruvate, 2 mM L-glutamine. Tumor-initiating (TIC) cells were obtained from Dr. Hidekazu Tsukamoto at University of Southern California and were maintained in 1:1 DMEM:F12 supplement with 100 U/ml penicillin and 100 μg/ml streptomycin, 2 mM glutamine, 20 ng/ml mouse EGF, 10 nM dexamethasone, 1× embryomax nucleotides. All the cells were maintained at 37° C. humidified atmosphere with 5% CO2. TIC cells were infected with Hmgb2 shRNA lentivirus for 48 hr, and treated with 500 ng/ml puromycin for 2 weeks. The stable cells were used for migration and invasion assay, as well as western blot.

The mark [6] stands for this setting: miRNA overexpression, Huh7, HEK293T, Hepa1, or TIC (FIG. 11).

B1: miR-539: microRNA, accession number NR_030256.1, SEQ ID NO: 5 (nucleic acid, listed as Homo sapiens)
chain: ATACTTGAGGAGAAATTATCCTTGGTGTGTTCGCTTTATTTATGATGAATCATACAAGGACAATTTCTTTTTGAGTAT
modifications: expressed or natural sequence
For the molecule B1, the values for the HMGB2 protein result with HMGB2 protein [1] (setting [6]) and with HMGB2 protein [1] (only in Huh7) were “decreased” and “inhibited”, respectively.

B2: miR-543: microRNA, accession number NR_030619.1, SEQ ID NO: 6 (nucleic acid, listed as Homo sapiens)
chain: TACTTAATGAGAAGTTGCCCGTGTTTTTTTCGCTTTATTTGTGACGAAACATTCGCGGTGCACTTCTTTTTCAGTATC
modifications: expressed or natural sequence
As for B2, the HMGB2 protein entry with HMGB2 protein [1] (setting [6]) is recorded as “decreased”.

B3: miR-127: microRNA, accession number NR_029696.1, SEQ ID NO: 4; targets the HMGB2 3′UTR (nucleic acid, listed as Homo sapiens)
chain: TGTGATCACTGTCTCCAGCCTGCTGAAGCTCAGAGGGCTCTGATTCAGAAAGATCATCGGATCCGTCTGAGCTTGGCTGGTCGGAAGTCTCATCATC
modifications: expressed or natural sequence
For the molecule B3, the spheroid formation entry with TIC cells is “downregulates”. For the same molecule, in the data set with HMGB2 3′UTR, the “targeting of HMGB2 3′UTR (luciferase reporter)” value was “targets the HMGB2 3′UTR”. Besides, the HMGB2 protein entry with HMGB2 protein [2] is “decreases HMGB2 protein”; with HMGB2 protein [5], “downregulates”. In addition, in the data set on CGR8 ES cells [3], the CGR8 differentiation entry was “promotes CGR8 differentiation”. Besides, the “differentiation markers (Bmp5, Foxa2)” value in the data set on CGR8 ES cells [4] is on record as “increases”. Also, the “stem cell marker (Oct4, Nanog, Sox2) expression” value with CGR8 ES cells [4] is recorded as “decreases”. The Rhos/CDC42/Rac signaling entry with MMP and Rho signaling is “downregulates”.
